Source: patent publication US20230000974A1

Tested on: T1, fluorogenic substrate (R&D systems, cat no. ES007), peptide YVADAPK between Mca and Dnp groups
T1 sequence: YVADAPK

commercial ACE-2 from Sino Biological (cat no 10108H08H20)
enzymatic activity assay using a fluorogenic substrate (fluorescence, excitation 320 nm, emission 405 nm): All four samples appeared to have similar levels of activity
